Results taken from the RNAGym collection of RNA variant scans (doi:10.1093/molbev/msab373).

B1: Azoarcus group I ribozyme (parent)
chain: GUGCCUUGCGCCGGGAAACCACGCAAGGGAUGGUGUCAAAUUCGGCGAAACCUAAGCGCCCGCCCGGGCGUAUGGCAACGCCGAGCCAAGCUUCGGCGCCUGCGCCGAUGAAGGUGUAGAGACUAGACGGCACCCACCUAAGGCAAACGCUAUGGUGAAGGCAUAGUCCAGGGAGUGGCGAAAGUCACACAAACCGG

Variants of: B1
Assay: reverse-splicing fitness (ratio to wild type); higher = more active; in vitro selection; Mg2+ level not given
Method in brief: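 An in vitro group I ribozyme library with randomized positions was T7-transcribed and gel-purified. In triplicate, 10 pmol RNA in EPPS pH 7.5 was reacted with 50 pmoles of a 30-nt RNA substrate for 1 h at 37 °C across several added MgCl2 levels (1–48 mM), then stopped with EDTA. Products were reverse transcribed from a substrate-complementary primer, PCR-amplified and sequenced (HiSeq 4000). Fitness is a variant's read proportion after selection over that before, normalised to wild type.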

Variant	reverse-splicing fitness
C82A A111G A120C A145U C150U C169U U176G	0.00546
C82A A111G A120G C150A C169G U176A	0.0211
C82A A111G A120G C150A C169G U176G	0.00613
C82A A111G A120G C150A C169G U176C	0.0245
C82A A111G A120G C169U U176A	0.0208
C82A A111G A120G A145C C150G C169A U176A	0.00923
C82A A111G A120G A145C C150G C169A U176G	0.00564
C82A A111G A120G A145C C150G C169A U176C	0.00743
C82A A111G A120C C169A	0.00875
C82A A111G A120C C169G	0.00888
C82A A111G A120C C169U	0.0139
C82A A111G A120C C150U C169U U176A	0.014
C82A A111G A120C C150U C169U U176C	0.0125
C82A A111G A120C C150U C169U U176G	0.00647
C82A A111G A120G A145G C150G U176C	0.00999
C82A A111G A120G A145G C150G U176G	0.00568
C82A A111G A120G A145G C150G U176A	0.00684
C82A A111G A120G A145C C150U C169U U176G	0.00537
C82A A111G A120G A145C C150U C169U U176A	0.0203
C82A A111G A120G A145C C150U C169U U176C	0.0113
C82A A111G A120G A145U C150A C169U U176C	0.0157

Variant	reverse-splicing fitness
C82A A111G A120G A145U C150A C169U U176A	0.0222
C82A A111G A120G A145U C150A C169U U176G	0.00457
C82A A111G A120G A145U C169A U176G	0.0046
C82A A111G A120G A145U C169A U176A	0.0117
C82A A111G A120G A145U C169A U176C	0.0121
C82A A111G A120G A145U C150G U176G	0.00378
C82A A111G A120G A145U C150G U176A	0.00605
C82A A111G A120G A145U C150G U176C	0.00837
C82A A111G A120C C150A C169G	0.00973
C82A A111G A120C C150A C169A	0.0113
C82A A111G A120C C150A C169U	0.011
C82A A111G A120G A145G C150A C169U U176C	0.0184
C82A A111G A120G A145G C150A C169U U176G	0.00673
C82A A111G A120G A145G C150A C169U U176A	0.0192
C82A A111G A120G A145U C169U U176G	0.00416
C82A A111G A120G A145U C169U U176A	0.0204
C82A A111G A120G A145U C169U U176C	0.0158
C82A A111G A120G C169G U176A	0.0226
C82A A111G A120G C169G U176C	0.0229
C82A A111G A120G C169G U176G	0.00458
C82A A111G A120C C150A C169U U176A	0.0162

Variant	reverse-splicing fitness
C82A A111G A120C C150A C169U U176G	0.00938
C82A A111G A120C C150A C169U U176C	0.0133
C82A A111G A120G A145U C150U C169U U176A	0.0192
C82A A111G A120G A145U C150U C169U U176C	0.0152
C82A A111G A120G A145U C150U C169U U176G	0.00555
C82A A111G A120C C150G	0.0106
C82A A111G A120C C150A	0.0162
C82A A111G A120C C150U	0.0279
C82A A111G A120G A145U C150G C169G U176G	0.00446
C82A A111G A120G A145U C150G C169G U176C	0.00461
C82A A111G A120G A145U C150G C169G U176A	0.00739
C82A A111G A120G A145U C150U C169U	0.00852
C82A A111G A120G A145U C150U C169A	0.0103
C82A A111G A120G A145U C150U C169G	0.0104
C82A A111G A120G A145G C150U C169U U176C	0.0165
C82A A111G A120G A145G C150U C169U U176G	0.00632
C82A A111G A120G A145G C150U C169U U176A	0.0182
C82A A111G A120G A145U C150U C169A U176C	0.0116
C82A A111G A120G A145U C150U C169A U176A	0.0141
C82A A111G A120G A145U C150U C169A U176G	0.00488
C82A A111G A120G A145U U176A	0.0131

Variant	reverse-splicing fitness
C82A A111G A120G A145U U176G	0.00583
C82A A111G A120G A145U U176C	0.0167
C82A A111G A120G C150U C169A U176G	0.00549
C82A A111G A120G C150U C169A U176C	0.0173
C82A A111G A120G C150U C169A U176A	0.0153
C82A A111G A120G A145C C150G C169G U176C	0.00788
C82A A111G A120G A145C C150G C169G U176G	0.0049
C82A A111G A120G A145C C150G C169G U176A	0.00955
C82A A111G A120G A145C C169A U176G	0.00385
C82A A111G A120G A145C C169A U176C	0.00752
C82A A111G A120G A145C C169A U176A	0.0117
C82A A111G A120G C150A C169G	0.00987
C82A A111G A120G C150A C169A	0.0103
C82A A111G A120G C150A C169U	0.00823
C82A A111G A120G A145G C169G	0.0122
C82A A111G A120G A145G C169A	0.0101
C82A A111G A120G A145G C169U	0.0111
C82A A111G A120G A145U C150U U176A	0.00996
C82A A111G A120G A145U C150U U176G	0.00595
C82A A111G A120G A145U C150U U176C	0.014
